According to patent US10736933B2, “Peptide-induced NK cell activation” (priority 2015, dated 2020):

Key:
HLA-Cw*0102 = HLA-Cw*0102 (Homo sapiens, UniProt P10321, A176E/A330V/A35S/A97T/C350S/D114A/D33F/L171W/L180R/L218V/M285V/M309V/M331V/P208H/Q277E/Q291P/R121W/R243W/R30K/S123C/S140Y/S297R/T329A/T363A/V272M/V319A); experiment: Peptide binding to HLA-Cw*0102 on L721.174 cells (cell surface MHC class I, flow cytometry); assay type: cell-based; settings: increasing concentrations of peptide, overnight at 26° C.
Procedure: (§1) The HLA-Cw*0102-positive cell line L721.174 was incubated with increasing concentrations of the LNPSVAATL (SEQ ID NO: 5) peptide or a control peptide VAPWNSLSL (SEQ ID NO: 11). Cells were stained for cell surface of MHC class I and analysed by flow cytometry. The mean fluorescence intensity of cell surface MHC Class I was plotted against the peptide concentration.
as §1, with “HLA-Cw*0102 • positive” for “HLA-Cw*0102-positive”, “peptides IVDLMCHATF” for “LNPSVAATL”, “1); VIDAMCHATL (SEQ ID NO: 2); AANVMAASL (SEQ ID NO: 3); and FLSDVPVATL (SEQ ID NO: 4)” for “5) peptide”, “[…].” for “VAPWNSLSL (SEQ ID NO: 11).”
3×10^5 cells were used per condition. Following washing in PBS the cells were stained for cell surface of MHC class I and analysed by flow cytometry. The mean fluorescence intensity of cell surface MHC Class I was plotted against the peptide concentration.
With reference to FIG. 12, the HLA-Cw*0102-positive cell line L721.174 was incubated with increasing concentrations of the peptides IVDLMCHATF (SEQ ID NO: 1), VIDAMCHATL (SEQ ID NO: 2), AANVMAASL (SEQ ID NO: 3); and FLSDVPVATL (SEQ ID NO: 4) overnight at 26° C. 3×10^5 cells were used per condition. Following washing in PBS the cells were stained for cell surface of MHC class I and analysed by flow cytometry. The mean fluorescence intensity of cell surface MHC Class I was plotted against the peptide concentration.

KIR2DS2 = biological target: T1, KIR2DS2 (Homo sapiens, UniProt P43631); experiment: KIR2DS2 tetramer (KIR2DS2-PE) staining of peptide-loaded L721.174 cells; assay type: binding; settings: L721.174 cells incubated overnight at 26° C. with peptide, flow cytometry
T1 construct: made in house
T1 sequence (P43631 22-245 limits assumed): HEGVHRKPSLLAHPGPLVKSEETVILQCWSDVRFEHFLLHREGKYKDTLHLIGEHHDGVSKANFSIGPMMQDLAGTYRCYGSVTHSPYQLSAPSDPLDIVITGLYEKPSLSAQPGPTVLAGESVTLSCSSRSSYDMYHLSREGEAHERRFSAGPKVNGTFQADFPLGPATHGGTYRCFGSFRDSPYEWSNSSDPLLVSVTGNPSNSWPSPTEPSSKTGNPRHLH
Procedure: A. The KIR2DS2 protein was expressed with a biotinylation C-terminal tag. Following biotinylation with the BirA enzyme, the KIR2DS2 protein was incubated with streptavidin-phycoerythrin to form fluorescent KIR2DS2-tetramers (KIR2DS2-PE). L721.174 cells were then incubated with indicated peptides. Cells were then stained with KIR2DS2-PE and analysed by flow cytometry. Shown are histogram plots. The bold numbers represent the mean fluorescent staining intensity of the KIR2DS2-PE staining of the cells in the presence of peptide and the non-bold numbers the staining in the absence of peptide. B. Represents the mean and standard error fluorescent intensities of the experiment in “A” following replicate experiments.
A. L721.174 cells were incubated with indicated peptides. Cells were then stained with KIR2DS2-PE (see FIG. 4) and analysed by flow cytometry. Shown are histogram plots. The bold numbers represent the mean fluorescent staining intensity of the KIR2DS2-PE staining of the cells in the presence of peptide and the non-bold numbers the staining in the absence of peptide. B. Represents the mean and standard error fluorescent intensities of the experiment in “A” following replicate experiments.
FIG. 13—KIR2DS2 tetramer staining on 174 cells with and without peptides. Peptides tested include IVDLMCHATF (SEQ ID NO: 1); VIDAMCHATL (SEQ ID NO: 2); AANVMAASL (SEQ ID NO: 3); and FLSDVPVATL (SEQ ID NO: 4). A negative control peptide VAPWNSFAL (SEQ ID NO: 12) and positive control peptide LNPSVAATL (SEQ ID NO: 5) were included. The mean fluorescence intensity of the KIR2DS2 tetramer staining is shown in the right hand corner of the graph.
With reference to FIG. 4A, the KIR2DS2 protein was expressed as a recombinant protein with a biotinylation C-terminal tag. Following biotinylation with the BirA enzyme, the KIR2DS2 protein was incubated with streptavidin-phycoerythrin to form fluorescent KIR2DS2-tetramers (KIR2DS2-PE). 3×10^5 L721.174 cells were then incubated overnight at 26° C. with indicated peptides at a concentration of […]. Cells were then stained with KIR2DS2-PE and analysed by flow cytometry. Shown are histogram plots. The bold numbers represent the mean fluorescent staining intensity of the KIR2DS2-PE staining of the cells in the presence of peptide and the non-bold numbers the staining in the absence of peptide. With reference to FIG. 4B, panel B represents the mean and standard error fluorescent intensities of the experiment in “A” following replicate experiments.
With reference to FIG. 5A, 3×10^5 L721.174 cells were incubated overnight at 26° C. with indicated peptides at a concentration of 200 μM. Cells were then stained with KIR2DS2-PE (see FIG. 4) and analysed by flow cytometry. Shown are histogram plots. The bold numbers represent the mean fluorescent staining intensity of the KIR2DS2-PE staining of the cells in the presence of peptide and the non-bold numbers the staining in the absence of peptide. With reference to FIG. 5B, panel B represents the mean and standard error fluorescent intensities of the experiment in “A” following replicate experiments.
With reference to FIG. 13, the KIR2DS2 protein was expressed as a recombinant protein with a biotinylation C-terminal tag. Following biotinylation with the BirA enzyme, the KIR2DS2 protein was incubated with streptavidin-phycoerythrin to form fluorescent KIR2DS2-tetramers (KIR2DS2-PE). […] Cells were then stained with KIR2DS2-PE and analysed by flow cytometry. […]

| Sequence | binding to HLA-Cw*0102 (mean fluorescence intensity of cell surface MHC Class I) (HLA-Cw*0102) | KIR2DS2-PE tetramer binding to HLA-C*0102 and peptide (KIR2DS2) |
| --- | --- | --- |
| IVDLMCHATF [Dengue virus peptide] | bind HLA-Cw*0102 | KIR2DS2 BINDS |
| LNPSVAATL [peptide recognized by KIR2DS2-positive NK cells] | binds HLA-Cw*0102 | KIR2DS2 binds |
